Experiment: yeast display, Sf9 membrane polyspecificity reagent, FACS + sequencing; frameworks hold sequencing errors
How it was run: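 Galactose-induced (36–48 hours) yeast carrying a synthetic nanobody display library were exposed to 10% biotinylated, detergent-solubilized Sf9 membrane reagent at 4 °C for 1 hour. FACS followed streptavidin microbead enrichment, using low and high (top ~1%) gates for expression (anti-HA) and reagent binding (streptavidin). Colony PCR, MiSeq 2 × 250 sequencing and CDR-length filtering followed. Labels for polyreactivity reflect the gate of origin.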

| Sequence | polyreactivity (PSR sort gate) |
| --- | --- |
| QDQLVESGGGLVQAVGSLRLSCAASGSIFDVNALGWYRQAPGKERELVAAISQRGTRTYYADSVKGRFTISRDNAKNTVYLQMNSLKPEDTAVYYCNRGGWRQYDSWGQGTQVTVSS | high polyreactivity |
| QDQLVESGGRLVQAVGSLRLTCAASGRIFRGNGLGWYRQAPGKARELVASISSGGRTNYADSVKGRFTISRDNAKNTVYLQMNSLKPEDTAVYYCSATKSPSLYRWLYDYWGQGTQVTVSS | high polyreactivity |
| QDQLVESGRGLFQAGGSLRLSCAASGSTLWANAMGWYRQAPGKERELVAAISWRGGRTYYADSVKGRFTISRDNAKNTVYLQMNSLKPEVTAVYYCNAVSYYRPRTDYWGQGTLVTVSS | high polyreactivity |
| QDQLVESGRGLVQAGGSLRLSCAASGFIFYQNAMGWYRQAPGKERELVAAISWRSGRTYYADSVKGRFTISRDNAKNTVYLQMNSLKPEDTAVYYCNAVRYPSYSPEYGSWGQGTEVTVSS | high polyreactivity |
| QDQLVESGVGLVQAGGSLRLSCAASGIIIYRNTLGWYRQAPGKERELVAAIRRGGNTYYADSVKGRFTISRDNAKNTVYLQMNSLKPEDSAVYYCAASAGPRASYYYWGQGTQVTVSS | high polyreactivity |
| QDQLVESRGALVQAGGSLRLSCAASGIIFGRNAMGWYRQAPRKERELVAGITRRGARTYYADSVKGRFTISRDNAKNTVYFQMNILKPEDTAVYYCAAVGPYRWYDYWGQGTQVTVSS | high polyreactivity |
| QDQLVESRGGEVQAGGSRRLRCAASGLTFLYNAMGWYRQAPGKERELVAAISQSAGSTYYADSVKGRFTISRDTAKNTVYLQLNSLKPEETAVYYFAADWDTPDLVIYDYWGQGTQVTLSS | low polyreactivity |
| QDQLVESRGGIVQAVRSLRLSSAASGSTYRNYAMGWYRQAPGKERELVAAISGSGGRTNYADSVKGRFTISRDNAKNTVYLQMNSLKQEDTAVYYCNARFPDWALSEISNSTTYGYWGQGTQVNVSS | low polyreactivity |
| QDQLVESRGGLVQAGGSLRLSCAASGFTFGRYAMGWYRQAPGKERELVAVITSSGGRTYYADSVKGRFTISRDNAKNTVYLQMNSLKPEDTAVYYCHKYPLRLYGYDYWGQGTQVTVSS | high polyreactivity |
| QDQLVESRGGLVQAGGSLRLSCAASGRIFLTNAMGWDRKAPGKERELVAAITSGGSTYYADSVKGRFTISRDNAKNTVFLQMNSVKPEDTAVYYCNADTDRYCPYEYDYWGQGTQVTVSS | low polyreactivity |
| QDQLVESVGGLDQAGGSLRLSCAASGFIFGANAIGWYRQATGKEREMVAAISSSGGRYELRRSVKGRFTISRDNAKNTVYLQMNSLKPEDTAVYYCATPYPTGRPRHYSWGQGTQVTVSS | high polyreactivity |
| QDQLVESVGGLVQAGGSLRLSCAASGRTFGRYPMGSYIEAPGKEREMVAAIRSGGSTYYADSVKGRFTISRDNAKNTVYLLMNSLKPEDTAVYYCAADIDRHLTGFAYYRLDYWGQGTQVTVSS | low polyreactivity |
| QDQLVESVGGLVQAGVSLRLSCAASGSTLRKYAMGWYRQAPGKESELVAAISNSGGGTYYADSVKGRFTISRDNAKNTVYLQMNSLKPEDTAVYYCAARYGPSYGYGLYYPRRDYWGQGTQVTVSS | high polyreactivity |
| QDQLVESWGGLVQAGGSLRLICAASGFIFRSYAMGWYRQAPGKERELVAAITYSGGRTYYADSVKGRFTISRDNAKNTVYLQMNSLKPEDTAVYYCAAETRVDFYWGQGTQVTVSS | high polyreactivity |
| QDQLVESWGGLVQAGGSLRLSCAASGFTFRNNAMGWYRHAPWKERDLVASITARGGSTYYADTVKGRFTISRDNAINTVYVQLNILKTEDTAVYYSATDDYTWRRHPWYAGYDSWGQGTQVTVSS | low polyreactivity |
| QDQLVETGGGLVQAGGSLRLSCAASGRIFAYNSMGWYRQAPGKERELVAAISWSGSSTYYADSVKGRFTISRDNAKNTVYLHMNCLKPEDTAVYYCAATPWYYYSTSYAYYYWGQGTQVTVSS | high polyreactivity |

From the nanobody polyreactivity screen of Harvey et al. (2022)
